This is an account of results in US20120263652A1 (UNIVERSITY OF MARYLAND COLLEGE PARK, published 2012).

The target in assay [1] is human ICAM-1 (native, expressed on human cells: HUVEC, Caco-2) (human) (UniProt P05362). The experiment in a line: FITC IgG polystyrene carriers on fixed TNF-α-activated Caco-2 cells; fluorescence microscopy.
The target is the same in assay [2]. The experiment in a line: competition: free non-specific IgG against FITC anti-ICAM carriers on Caco-2 cells; fluorescence microscopy.
Assay [3] addresses T1, human ICAM-1 (native, expressed on human cells: HUVEC, Caco-2) (human, UniProt P05362 28-532).
T1 construct: whole, on cells; also called intercellular adhesion molecule 1; native human ICAM-1
The experiment in a line: competition: synthetic peptide against FITC anti-ICAM polystyrene nanocarriers on human endothelial cells; fluorescence microscopy. An excerpt: (A) ELISA measurement of the binding of 7-mer peptide expressing phage library to immobilized recombinant ICAM-1 (consisting of the two most membrane-distal Ig domains −1 and 2- of mouse ICAM-1 fused to human Fc or hFc), versus their binding to control hFc. (B) Relative specificity and (C) relative affinity of ICAM-1-targeting peptide phages, determined by ELISA from the experiment in (A). (D) Relative binding of phages expressing 7-mer peptides to native ICAM-1 expressed on the surface of HV5 mouse endothelial cells, either control or activated with TNFalpha to mimic a disease phenotype. Binding was determined by microscopy using a fluorescently-labeled antibody to the phage capsid. The line in the graph indicates the level of binding of A1 phage to 293 cells, which are voided of ICAM-1-expression. […] (G) Binding of FITC-labeled anti-ICAM polystyrene nanocarriers to human endothelial cells was evaluated by fluorescence microscopy after incubation with cells in the absence (100% level) or presence of anti-ICAM antibody, ICAM-1-targeting synthetic peptides, or peptides with their scramble sequence (e.g., A1 sc).

For assay [4], the target named is T2, mouse ICAM-1 chimera: the two most membrane-distal Ig domains (1 and 2) of mouse ICAM-1 fused to human Fc (mouse; human, UniProt P13597 28-214, limits assumed).
T2 construct: domain: the two most membrane-distal Ig domains -1 and 2-; also called mouse ICAM-1/Fc; mouse ICAM-1/hFc; not shown: human Fc (hFc)
T2 sequence (P13597 28-214 limits assumed, stated change not applied): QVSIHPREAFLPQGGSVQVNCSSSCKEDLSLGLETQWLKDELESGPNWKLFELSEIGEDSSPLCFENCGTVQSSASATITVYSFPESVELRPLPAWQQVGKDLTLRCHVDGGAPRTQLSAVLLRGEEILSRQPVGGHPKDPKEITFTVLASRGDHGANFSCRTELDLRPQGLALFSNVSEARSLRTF
The experiment in a line: phage ELISA, binding to mouse ICAM-1/hFc relative to control hFc. From the text:
(§1) Example 5 details development of the 7-mer phage-display derived peptides against ICAM-1. These were identified and isolated from a random library by using a chimeric ICAM-1 protein consisting of the two most membrane-distal Ig domains of mouse ICAM-1 fused to human Fc (hFc). One round of negative selection against hFc, followed by three rounds of positive selection against mouse ICAM-1/hFc, rendered six phage clones (A1, B7, B8, B9, B10, and D6), which recognized immobilized mouse ICAM-1 (FIG. 5A).
(§2) (A) ELISA measurement of the binding of 7-mer peptide expressing phage library to immobilized recombinant ICAM-1 (consisting of the two most membrane-distal Ig domains −1 and 2- of mouse ICAM-1 fused to human Fc or hFc), versus their binding to control hFc. (B) Relative specificity and (C) relative affinity of ICAM-1-targeting peptide phages, determined by ELISA from the experiment in (A). (D) Relative binding of phages expressing 7-mer peptides to native ICAM-1 expressed on the surface of HV5 mouse endothelial cells, either control or activated with TNFalpha to mimic a disease phenotype. Binding was determined by microscopy using a fluorescently-labeled antibody to the phage capsid.

Assay [5] deals with T2, mouse ICAM-1 chimera: the two most …. The experiment in a line: phage ELISA on immobilized mouse ICAM-1/hFc, relative to non-selected phages.
Source text: as §1, §2

The target of assay [6] is T1, human ICAM-1 (native, expressed on …). The experiment in a line: 100 nm FITC polystyrene carriers coated with peptide on endothelial cells; fluorescence microscopy.
Assay [7] concerns the target T2, mouse ICAM-1 chimera: the two most …. The assay is described as follows: phage ELISA on immobilized mouse ICAM-1/hFc.
Source text: as §1, §2

Assay [8] has as its target mouse ICAM-1 (native, expressed on mouse endothelial cells) (mouse) (UniProt P13597). The experiment in a line: phage binding to H5V mouse endothelial cells; microscopy with fluorescent antibody to the phage capsid.
In assay [9] the target is T2, mouse ICAM-1 chimera: the two most …. The assay is described as follows: γ3 absorbed on 100 nm FITC polystyrene particles; nitrocellulose-immobilized ICAM-1/Fc vs albumin; fluorescence microscopy. On the procedure: (A) The peptide γ3 was absorbed on the surface of 100 nm FITC-labeled polystyrene carriers and the resulting products were incubated for 15 min on nitrocellulose-immobilized albumin vs human or mouse ICAM-1 chimeras containing ICAM-1-Ig domains 1 and 2 fused to human Fc sequence. The membranes were washed and analyzed by fluorescence microscopy to quantify the number of carriers bound per area. Data are expressed relative to non-specific binding of γ3 carriers to albumin controls (dotted line). A comparison to binding of anti-ICAM carriers is provided (dashed line). (B) Binding of FITC-labeled polystyrene carriers coated by absorption with the peptide γ3 and recombinant acid sphingomyelinase (ASM, a therapeutic enzyme) to activated HUVEC (bars) vs ICAM-1-negative 293 cells (dotted line) was quantified by fluorescence microscopy after 1 h incubation at 37° C., in the absence or presence of excess γ3, anti-ICAM, γ3 scramble peptide, or mannose 6 phosphate (M6P). […] (C) HUVEC lysosomes were labeled for 2 h with Texas-red dextran at 37° C. […] Co-localization of FITC carriers with Texas-red dextran-lysosomes was quantified by fluorescence microscopy. […] Co-localization of FITC 2γ3 carriers with Texas red dextran-labeled lysosomes was assessed by microscopy 3 h post-internalization. […]

T1 sequence (P05362 28-532): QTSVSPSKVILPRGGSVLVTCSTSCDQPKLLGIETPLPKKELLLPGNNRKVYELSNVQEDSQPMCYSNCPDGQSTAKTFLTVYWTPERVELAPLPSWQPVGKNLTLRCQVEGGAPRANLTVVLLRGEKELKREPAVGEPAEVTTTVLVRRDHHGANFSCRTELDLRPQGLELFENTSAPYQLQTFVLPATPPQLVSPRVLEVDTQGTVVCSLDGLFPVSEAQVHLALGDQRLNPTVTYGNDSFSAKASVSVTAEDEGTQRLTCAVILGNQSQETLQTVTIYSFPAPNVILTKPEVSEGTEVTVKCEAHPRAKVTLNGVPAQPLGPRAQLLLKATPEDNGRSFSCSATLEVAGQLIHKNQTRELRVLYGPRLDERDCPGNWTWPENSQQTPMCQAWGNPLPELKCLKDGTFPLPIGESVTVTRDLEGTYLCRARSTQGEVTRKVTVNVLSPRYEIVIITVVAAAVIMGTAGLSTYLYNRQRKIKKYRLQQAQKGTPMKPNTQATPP
Sequence of human ICAM-1 (native, expressed on human cells: HUVEC, Caco-2) (human) (P05362 28-532): as above

In assay [1], non-specific IgG (control) (antibody) showed a carriers/cell (carriers/cell) of 1.3. Further, the carrier binding, % of the control value with no competitor in assay [2] is 102 % of control.

B1: B8 peptide (phage display-derived 7-mer) (peptide)
peptide: GSLLSAA
notes: Tested as a phage clone and as a synthetic peptide; The assay field says which; also called B8 clone
On to B1, for which, in [3], the binding result is listed as “binds”.

B2: A1 peptide (phage display-derived 7-mer) (peptide)
peptide: YPASYQR
notes: Tested as a phage clone (5 copies of the peptide on the capsid; coat protein fusion not described) and as a peptide synthesized in vitro; The assay field says which; also called A1 clone; clone A1 phages
With B2, in assay [4], the “specificity vs hFc” value is roughly 5.1 fold. For the same molecule, the “affinity, fold over non-selected phages” value in assay [5] is roughly 4.7 fold.

B3: 2γ3 peptide (peptide)
peptide: NNQKIVNIKEKVAQIEA
notes: Derivative of γ3, tested absorbed on polystyrene or PLGA carriers; also called 2γ3 carriers; 2γ3/ASM carriers
Take B3: the binding result in assay [6] was “binds”.

B4: 3γ3 peptide (peptide)
peptide: NNQKLVNIKEKVAQIEA
notes: Derivative of γ3, tested absorbed on polystyrene carriers; also called 3γ3 carriers; 3γ3/ASM carriers
As to B4, the binding result in assay [6] was “binds”.

B5: B9 peptide (phage display-derived 7-mer) (peptide)
peptide: FSPHSRT
notes: Tested as a phage clone and as a synthetic peptide; The assay field says which; also called B9 clone
For the molecule B5, the binding result in [7] is given as “binds”. Also, in assay [8], the affinity, % of A1 was 72.3 % of A1.

B6: D6 peptide (phage display-derived 7-mer) (peptide)
peptide: GCKLCAQ
Consider B6, for which the affinity, % of A1 in assay [8] was 92.9 % of A1.

B7: γ3 peptide (17 amino acid peptide derived from the γ chain of fibrinogen) (peptide)
peptide: NNQKIVNLKEKVAQLEA
notes: Synthetic peptide; Tested mostly absorbed on 100 nm FITC polystyrene carriers, in some assays together with recombinant acid sphingomyelinase (ASM); also called γ3 carriers; γ3/ASM carriers
On to B7, for which, in assay [9], the binding result is on record as “binds”.
